Where a chain is given by its changes, count along the chain named.

This is an account of results in US20230277689.

Sequences and labels used below:
B1: plasma purified human CFI (Comptech) (protein)
chain: KVTYTSQEDLVEKKCLAKKYTHLSCDKVFCQPWQRCIEGTCVCKLPYQCPKNGTAVCATNRRSFPTYCQQKSLECLHPGTKFLNNGTCTAEGKFSVSLKHGNTDSEGIVEVKLVDQDKTMFICKSSWSMREANVACLDLGFQQGADTQRRFKLSDLSINSTECLHVHCRGLETSLAECTFTKRRTMGYQDFADVVCYTQKADSPMDDFFQCVNGKYISQMKACDGINDCGDQSDELCCKACQGKGFHCKSGVCIPSQYQCNGEVDCITGEDEVGCAGFASVTQEETEILTADMDAERRRIKSLLPKLSCGVKNRMHIRRKRIVGGKRAQLGDLPWQVAIKDASGITCGGIYIGGCWILTAAHCLRASKTHRYQIWTTVVDWIHPDLKRIVIEYVDRIIFHENYNAGTYQNDIALIEMKKDGNKKDCELPRSIPACVPWSPYLFQPNDTCIVSGWGREKDNERVFSLQWGEVKLISNCSKFYGNRFYEKEMECAGTYDGSIDACKGDSGGPLVCMDANNVTYVWGVVSWGENCGKPEFPGVYTKVANYFDWISYHVGRPFISQYNV
B2: human Complement Factor I expressed from pAAV.CFI / AAV.CFI (cDNA of SEQ ID NO: 2, Genbank NM_000204.4) (protein)
chain: B1 chain with T282A
B3: human Complement Factor I expressed from pAAV.CFIco / AAV.CFIco (codon-optimised cDNA of SEQ ID NO: 8) (protein)
chain: B1 chain

The target in the series is plasma purified C3b (Comptech), P01024.
plasma purified C3b (Comptech), P01024, sequence (P01024 whole entry, looked up): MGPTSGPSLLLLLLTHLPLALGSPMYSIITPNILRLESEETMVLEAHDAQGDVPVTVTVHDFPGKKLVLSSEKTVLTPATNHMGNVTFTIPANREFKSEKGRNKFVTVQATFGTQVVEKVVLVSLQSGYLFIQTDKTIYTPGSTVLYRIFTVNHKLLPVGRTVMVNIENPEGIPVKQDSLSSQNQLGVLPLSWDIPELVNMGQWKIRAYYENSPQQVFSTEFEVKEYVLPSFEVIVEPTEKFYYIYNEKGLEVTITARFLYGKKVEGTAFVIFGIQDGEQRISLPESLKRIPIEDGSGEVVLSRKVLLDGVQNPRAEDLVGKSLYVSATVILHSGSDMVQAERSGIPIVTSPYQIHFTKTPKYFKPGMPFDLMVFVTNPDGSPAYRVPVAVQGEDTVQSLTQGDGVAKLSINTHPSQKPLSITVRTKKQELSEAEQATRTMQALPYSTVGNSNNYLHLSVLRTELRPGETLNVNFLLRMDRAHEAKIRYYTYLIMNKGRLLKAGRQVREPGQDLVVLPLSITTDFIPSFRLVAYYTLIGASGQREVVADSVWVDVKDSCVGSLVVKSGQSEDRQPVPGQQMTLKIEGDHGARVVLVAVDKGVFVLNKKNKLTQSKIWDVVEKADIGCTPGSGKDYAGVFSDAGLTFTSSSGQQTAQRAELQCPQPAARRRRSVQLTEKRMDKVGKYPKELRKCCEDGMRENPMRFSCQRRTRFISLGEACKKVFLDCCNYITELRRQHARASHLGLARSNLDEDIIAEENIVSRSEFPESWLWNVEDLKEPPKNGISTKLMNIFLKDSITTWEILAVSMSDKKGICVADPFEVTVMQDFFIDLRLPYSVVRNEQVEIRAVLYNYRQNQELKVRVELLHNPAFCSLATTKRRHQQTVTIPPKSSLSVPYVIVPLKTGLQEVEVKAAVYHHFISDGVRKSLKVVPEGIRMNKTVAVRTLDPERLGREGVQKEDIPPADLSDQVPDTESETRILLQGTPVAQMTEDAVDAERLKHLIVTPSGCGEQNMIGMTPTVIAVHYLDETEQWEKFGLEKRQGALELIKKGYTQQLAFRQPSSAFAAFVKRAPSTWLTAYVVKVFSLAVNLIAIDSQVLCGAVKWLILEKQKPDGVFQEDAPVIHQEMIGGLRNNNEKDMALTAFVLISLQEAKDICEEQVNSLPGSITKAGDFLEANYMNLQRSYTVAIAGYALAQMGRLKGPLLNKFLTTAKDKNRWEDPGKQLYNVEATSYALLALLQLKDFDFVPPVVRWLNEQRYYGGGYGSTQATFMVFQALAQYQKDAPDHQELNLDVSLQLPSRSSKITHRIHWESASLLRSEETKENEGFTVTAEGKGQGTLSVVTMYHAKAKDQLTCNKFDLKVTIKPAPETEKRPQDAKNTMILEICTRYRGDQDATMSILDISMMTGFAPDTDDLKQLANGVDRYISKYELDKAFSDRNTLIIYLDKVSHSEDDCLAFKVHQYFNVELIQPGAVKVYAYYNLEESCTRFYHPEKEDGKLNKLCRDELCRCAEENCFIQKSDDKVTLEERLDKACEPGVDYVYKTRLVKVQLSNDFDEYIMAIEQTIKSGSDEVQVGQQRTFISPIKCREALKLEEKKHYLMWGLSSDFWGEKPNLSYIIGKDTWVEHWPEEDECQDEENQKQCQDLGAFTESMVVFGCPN
B1: the “C3b cleavage assay (with CFH as co-factor; immunoblot with clone 9)” value (“C3b cleavage assay” below) is “C3b is degraded by CFIpl to iC3b and C3dg”.
For the protein B2, the “C3b cleavage assay” value was “CFI secreted from transduced cell lines is functionally active and cleaves the α-chain of C3b to iC3b”.
As for B3, the “C3b cleavage assay” value was “CFI secreted from transduced cell lines is functionally active and cleaves the α-chain of C3b to iC3b”.
